Patent US20050106160A1
Several values for one entry are separate records, joined by “and”; a condition that tells them apart may be missing. Equal entries are not always repeated. Where two headings read alike, the source gives them in different places.

Experiments:
[1] = target: cell surface associated CCR5 (CF2Th-CCR5 cells) (UniProt P51681)
[2] = target: cell surface associated CCR5 (CF2Th-CCR5 cells) (UniProt P51681); assay: flow cytometry on CF2Th-CCR5 cells, anti-CCR5 mAb 5C7, no ligand, background subtracted
[3] = target: cell surface associated CCR5 (CF2Th-CCR5 cells) (UniProt P51681); assay: flow cytometry on CF2Th-CCR5 cells, anti-CCR5 mAb 5C7, cells preincubated with gp140 + sCD4
[4] = target: cell surface associated CCR5 (CF2Th-CCR5 cells) (UniProt P51681); assay: flow cytometry on CF2Th-CCR5 cells, anti-CCR5 mAb 5C7, cells preincubated with sCD4 (1 µg/ml)

Sequence of UniProt P51681 (P51681 whole entry): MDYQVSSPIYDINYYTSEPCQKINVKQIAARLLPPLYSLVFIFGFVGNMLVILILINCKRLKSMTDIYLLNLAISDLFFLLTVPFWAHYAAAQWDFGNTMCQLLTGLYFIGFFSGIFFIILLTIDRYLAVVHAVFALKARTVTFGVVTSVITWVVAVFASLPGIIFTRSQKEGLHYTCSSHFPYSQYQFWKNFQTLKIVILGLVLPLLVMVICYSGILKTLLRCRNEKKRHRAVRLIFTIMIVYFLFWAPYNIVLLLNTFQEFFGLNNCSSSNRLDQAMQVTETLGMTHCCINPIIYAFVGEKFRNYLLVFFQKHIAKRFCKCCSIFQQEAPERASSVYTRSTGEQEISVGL

Row | Substance | geometric mean of fluorescence intensity (arbitrary units) [1] | geometric mean of fluorescence intensity (arbitrary units) [2] | geometric mean of fluorescence intensity (arbitrary units) [3] | geometric mean of fluorescence intensity (arbitrary units) [4]
1 | anti-CCR5 mAb 5C7 (antibody) | 1200 and 1100 | 1100 | 370 | 1300
2 | two-domain soluble CD4 (sCD4) (from UniProt P01730 26-208) (receptor) | 20 | – | – | –
